# Laboratory results from patent US20250327097A1, “ORGANISMS PRODUCING LESS CROTONIC ACID” (Global Bioenergies, priority 2021, published 2025).
# Where a chain is given by its changes, count along the chain named. In names and notes the source's numbering stands.
# B1: I283T-P284D-i284aP-N287P-S322T-Q365I-N388M-E421V-C430N-L432F-L434W-S436N-H461T-dG462-A463T (protein)
# chain: MFLKSLREQINLLKRQGDLRIINRPVDSYLEAAAIIRRSTETKAPVPLMTNIKGYPGCSIVGGLAALSSNPEYPLSRVAMSLGLSTTASAQSIVQYLIDGLKKTPYLPVEIDSNSAPCKQNILRGEDASLAHFPIPQVHQHDGNRYVNTWGVFIVESPDGQWCNWSIQRVQYLNDRQMIALVFPSQHISDIWEEWVKIGKPMPYALVQGCEPIVPYIAGLPLLERNVNEAEYIGALYGKGIEVVKCETHDLRVPASSEVVIEGYFAITREGVEGPFGEFAGYTDNEPSLQPILSITAISWQDDPIWPVVAEGKPVDEYHTCTGIGDAAAIQNVLLTANLPVSFVWVPLYSACHLMIVSINRHWRITHPDLTSEQLTKKVGDVIHQTRMSIKLPKIVVLDDDVDPADTESLLWALATRIHPVRKRYFYESNIFPWLNCYSEEERHNRKGKRVIIDALLPENTGTISSFDYAYPDDIKQRVLMHWETDFSHD
# B2: I283T-P284D-i284aP-N287P-S322T-N388M-E421V-C430N-L432F-L434W-S436N-H461T-dG462-A463T-D468L (protein)
# chain: B1 chain with I365Q, D468L
# B3: I283T-P284D-i284aP-N287P-S322T-N388M-E421V-C430N-L432F-L434W-S436N-C437F-H461T-dG462-A463T (protein)
# chain: B1 chain with I365Q, C437F
# B4: I283T-P284D-i284aP-N287P-S322T-Q385G-N388M-E421V-C430N-L432F-L434W-S436N-H461T-dG462-A463T (protein)
# chain: B1 chain with I365Q, Q385G
# B5: I283T-P284D-i284aP-E286A-N287P-S322T-N388M-E421V-C430N-L432F-L434W-S436N-H461T-dG462-A463T (protein)
# chain: B1 chain with E286A, I365Q
# B6: I283T-P284D-i284aP-N287P-S322T-N388M-E421V-C430N-L432F-L434W-S436N-G448V-H461T-dG462-A463T (protein)
# chain: B1 chain with I365Q, G448V
# B7: I283T-P284D-i284aP-N287P-S322T-Q385L-N388M-E421V-C430N-L432F-L434W-S436N-H461T-dG462-A463T (protein)
# chain: B1 chain with I365Q, Q385L
# B8: I283T-P284D-i284aP-N287P-S322T-N388M-E421V-C430N-L432F-L434W-S436N-H461T-dG462-A463T-Y469A (protein)
# chain: B1 chain with I365Q, Y469A
# B9: I283T-P284D-i284aP-N287P-S322T-Q385T-N388M-E421V-C430N-L432F-L434W-S436N-H461T-dG462-A463T (protein)
# chain: B1 chain with I365Q, Q385T
# B10: I283T-P284D-i284aP-N287P-S322T-N388M-E421V-C430N-L432F-L434W-S436N-G448E-H461T-dG462-A463T (protein)
# chain: B1 chain with I365Q, G448E
# B11: I283T-P284D-i284aP-N287P-S322T-N388M-E421V-C430N-L432F-L434W-S436N-G448C-H461T-dG462-A463T (protein)
# chain: B1 chain with I365Q, G448C
# B12: I283T-P284D-i284aP-N287P-S322T-H384G-N388M-E421V-C430N-L432F-L434W-S436N-H461T-dG462-A463T (protein)
# chain: B1 chain with I365Q, H384G
# B13: I283T-P284D-i284aP-N287P-L289R-S322T-N388M-E421V-C430N-L432F-L434W-S436N-H461T-dG462-A463T (protein)
# chain: B1 chain with L289R, I365Q
# B14: I283T-P284D-i284aP-N287P-S322T-H384L-N388M-E421V-C430N-L432F-L434W-S436N-H461T-dG462-A463T (protein)
# chain: B1 chain with I365Q, H384L
# B15: I283T-P284D-i284aP-N287P-S322T-N388M-E421V-C430N-L432F-L434W-S436N-C437G-H461T-dG462-A463T (protein)
# chain: B1 chain with I365Q, C437G
# B16: I283T-P284D-i284aP-E286S-N287P-S322T-N388M-E421V-C430N-L432F-L434W-S436N-H461T-dG462-A463T (protein)
# chain: B1 chain with E286S, I365Q
# B17: I283T-P284D-i284aP-N287P-S322T-Q385S-N388M-E421V-C430N-L432F-L434W-S436N-H461T-dG462-A463T (protein)
# chain: B1 chain with I365Q, Q385S
# B18: I283T-P284D-i284aP-N287P-S322T-N388M-E421V-C430N-L432F-L434W-S436N-H461T-dG462-A463T-Y469H (protein)
# chain: B1 chain with I365Q, Y469H
# B19: I283T-N285P-N287T-Q290E-S322T-I330V-N388M-K394R-C430A-i430aG-L432F-L434W-S436N-dG462 (protein)
# chain: MFLKSLREQINLLKRQGDLRIINRPVDSYLEAAAIIRRSTETKAPVPLMTNIKGYPGCSIVGGLAALSSNPEYPLSRVAMSLGLSTTASAQSIVQYLIDGLKKTPYLPVEIDSNSAPCKQNILRGEDASLAHFPIPQVHQHDGNRYVNTWGVFIVESPDGQWCNWSIQRVQYLNDRQMIALVFPSQHISDIWEEWVKIGKPMPYALVQGCEPIVPYIAGLPLLERNVNEAEYIGALYGKGIEVVKCETHDLRVPASSEVVIEGYFAITREGVEGPFGEFAGYTPPETSLEPILSITAISWQDDPIWPVVAEGKPVDEYHTCTGIGDAAAVQNVLLTANLPVSFVWVPLYSACHLMIVSINRHWRQTHPDLTSEQLTKKVGDVIHQTRMSIKLPRIVVLDDDVDPADTESLLWALATRIHPERKRYFYESAIFPWLNCYSEEERHNRKGKRVIIDALLPENHGAISSFDYAYPDDIKQRVLMHWETDFSHD
# B20: I283T-N285P-N287T-Q290E-S322T-I330V-N388M-S389H-K394R-C430A-i430aG-L432F-L434W-S436N-V451S-dG462 (protein)
# chain: B19 chain with S389H, V451S
# B21: I283T-N285P-N287T-Q290E-S322T-N388M-S389H-K394R-C430A-i430aG-L432F-L434W-S436N-dG462 (protein)
# chain: B19 chain with V330I, S389H
# B22: E224A-I283T-N285P-N287T-Q290E-S322T-N388M-S389H-K394R-C430A-i430aG-L432F-L434W-S436N-dG462 (protein)
# chain: B19 chain with E224A, V330I, S389H
# B23: I283T-N285P-N287T-Q290E-S322T-N388M-S389H-K394R-C430A-i430aG-L432F-L434W-S436N-I453L-dG462 (protein)
# chain: B19 chain with V330I, S389H, I453L
# B24: I283T-N285P-N287T-Q290E-S322T-I330V-N388M-S389H-K394R-C430A-i430aG-L432F-L434W-S436N-dG462 (protein)
# chain: B19 chain with S389H
# B25: L222V-E224P-I283T-N285P-N287T-Q290E-S322T-N388M-K394R-C430A-i430aG-L432F-L434W-S436N-dG462 (protein)
# chain: B19 chain with L222V, E224P, V330I
# B26: H141C-I283T-N285P-N287T-Q290E-S322T-I330V-N388M-S389H-K394R-C430A-i430aG-L432F-L434W-S436N-dG462 (protein)
# chain: B19 chain with H141C, S389H
# B27: E224P-I283T-N285P-N287T-Q290E-S322T-N388M-K394R-C430A-i430aG-L432F-L434W-S436N-dG462 (protein)
# chain: B19 chain with E224P, V330I
# B28: E224P-I283T-N285P-N287T-Q290E-S322T-N388M-S389H-K394R-C430A-i430aG-L432F-L434W-S436N-dG462 (protein)
# chain: B19 chain with E224P, V330I, S389H
# B29: H141C-I283T-N285P-N287T-Q290E-S322T-N388M-S389H-K394R-C430A-i430aG-L432F-L434W-S436N-dG462 (protein)
# chain: B19 chain with H141C, V330I, S389H
# System: 3-methylcrotonic acid
# Assay type: biochemical, Yersinia frederiksenii
# Parameters: key: “+” representing a low increase in activity; “++++” representing a high increase in activity
row,Molecule,Activity relative to WT
1,B1,++++
2,B2,++++
3,B3,++++
4,B4,++++
5,B5,++++
6,B6,++++
7,B7,++++
8,B8,++++
9,B9,++++
10,B10,++++
11,B11,++++
12,B12,++++
13,B13,++++
14,B14,++++
15,B15,++++
16,B16,++++
17,B17,++++
18,B18,++++
19,B19,++++
20,B20,++++
21,B21,++++
22,B22,++++
23,B23,++++
24,B24,++++
25,B25,++++
26,B26,++++
27,B27,++++
28,B28,++++
29,B29,++++
